According to patent US20060198851A1:

Experiments:
[1] = target: synthetic Aβ1-42 (aggregated in the ELISAs) (human) (UniProt P05067); assay: ELISA on aggregated synthetic Aβ1-42; given as ED50
[2] = target: soluble Aβ1-42, [125I]Aβ1-42 (human) (UniProt P05067); assay: capture radioimmunoassay, 50,000 CPM of 125I-Aβ 1-42 (or 125I-Aβ 1-40)

Substance	EC50 [1]	% of radioactive counts bound at 10 µg/ml [2]
monoclonal antibody 10D5 (IgG1)	0.053 nM	2%
monoclonal antibody 12B4 (IgG2a)	0.667 nM	7%
